pKd: −log10 of the molar value.
Target: murine Flk-1 receptor tyrosine kinase (fetal liver kinase 1), full-length, transiently expressed in COS-1 cells from pCMV-Flk-1 (mouse) (UniProt P35918)
Assay: competition of unlabeled VEGF (0 to 7 x 10^-9) with 10 pM 125I-VEGF on COS-1 cells expressing Flk-1; analysis by Munson and Rodbard

Sequence of UniProt P35918 (P35918 other isoform, or with tags, fused parts or gaps limits assumed): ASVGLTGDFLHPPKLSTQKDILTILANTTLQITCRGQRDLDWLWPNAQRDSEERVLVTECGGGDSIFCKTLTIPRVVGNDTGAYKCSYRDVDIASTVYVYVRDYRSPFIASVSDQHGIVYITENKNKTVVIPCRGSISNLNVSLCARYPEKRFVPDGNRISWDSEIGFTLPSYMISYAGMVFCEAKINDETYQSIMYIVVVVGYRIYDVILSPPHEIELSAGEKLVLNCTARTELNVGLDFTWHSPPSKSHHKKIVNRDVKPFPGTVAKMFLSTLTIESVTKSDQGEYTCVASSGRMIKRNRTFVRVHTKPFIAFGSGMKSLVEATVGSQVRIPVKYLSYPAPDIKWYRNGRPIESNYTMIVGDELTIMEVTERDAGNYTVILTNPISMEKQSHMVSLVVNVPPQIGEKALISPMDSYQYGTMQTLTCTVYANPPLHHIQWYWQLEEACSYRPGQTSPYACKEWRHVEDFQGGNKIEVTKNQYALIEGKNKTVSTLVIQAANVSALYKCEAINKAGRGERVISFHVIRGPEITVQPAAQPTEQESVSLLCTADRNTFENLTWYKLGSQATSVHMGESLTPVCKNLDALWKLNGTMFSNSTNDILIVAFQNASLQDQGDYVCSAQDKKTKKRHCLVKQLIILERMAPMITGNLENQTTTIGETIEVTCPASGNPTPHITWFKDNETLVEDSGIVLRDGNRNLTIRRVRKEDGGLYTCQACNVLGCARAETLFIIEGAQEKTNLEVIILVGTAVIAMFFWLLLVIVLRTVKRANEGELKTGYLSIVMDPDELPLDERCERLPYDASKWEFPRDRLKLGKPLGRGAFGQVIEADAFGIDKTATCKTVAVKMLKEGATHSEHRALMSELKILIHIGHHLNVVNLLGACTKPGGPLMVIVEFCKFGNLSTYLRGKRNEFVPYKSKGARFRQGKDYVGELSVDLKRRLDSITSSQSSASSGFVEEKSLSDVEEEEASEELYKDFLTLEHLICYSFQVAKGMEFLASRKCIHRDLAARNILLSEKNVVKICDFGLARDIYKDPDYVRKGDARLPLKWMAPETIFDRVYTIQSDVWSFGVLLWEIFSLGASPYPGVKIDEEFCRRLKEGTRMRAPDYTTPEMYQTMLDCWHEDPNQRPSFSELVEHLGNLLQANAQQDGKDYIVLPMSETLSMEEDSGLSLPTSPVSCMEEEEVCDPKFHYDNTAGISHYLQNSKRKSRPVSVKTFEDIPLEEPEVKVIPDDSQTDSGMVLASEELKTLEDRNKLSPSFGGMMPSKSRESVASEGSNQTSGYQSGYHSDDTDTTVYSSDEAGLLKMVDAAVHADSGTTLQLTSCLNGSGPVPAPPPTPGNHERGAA

- pKd: 10.00
Substance: unlabeled VEGF (164 amino acid form), partially purified from conditioned media of COS-1 cells transiently expressing VEGF (from UniProt Q00731 1-392) (ligand)
